B1: [^3H]-neurotensin [modified: pyroGlu at position 1; [3,11-tyrosyl-3,5-^3H(N)] (tritium on Tyr3 and Tyr11); pyroGlu at position 1; [3,11-tyrosyl-3,5-^3H(N)] (tritium on Tyr3 and Tyr11)] [not stated] / wild-type NTS1 (N-terminally truncated … (parent complex)
chain 1: not shown
chain 2: TSESDTAGPNSDLDVNTDIYSKVLVTAIYLALFVVGTVGNSVTAFTLARKKSLQSLQSTVHYHLGSLALSDLLILLLAMPVELYNFIWVHHPWAFGDAGCRGYYFLRDACTYATALNVASLSVERYLAICHPFKAKTLMSRSRTKKFISAIWLASALLAIPMLFTMGLQNRSGDGTHPGGLVCTPIVDTATVKVVIQVNTFMSFLFPMLVISILNTVIANKLTVMVHQAAEQGRVCTVGTHNGLEHSTFNMTIEPGRVQALRHGVLVLRAVVIAFVVCWLPYHVRRLMFCYISDEQWTTFLFDFYHYFYMLTNALFYVSSAINPILYNLVSANFRQVFLSTLACLCPGWRHRRKKRPTFSRKPNSMSSNHAFSTSATRETLY

Variants of B1 are the subject of this test. Briefly: saturation binding assay on intact E. coli cells; intact E. coli cells.
By Kd is commonly meant the equilibrium constant for the complex coming apart. chain 2 A44L, chain 2 F316A: the Kd was 0.1 nM.

These data come from paper PMC2696590 (2009).
